We go through 56 molecules from patent US20260167699A1 (Chugai, published 2026).

B1: GpH7-A5/GpH7-B3 variant E269_07I/GpL16-k0 (antibody, human IgG1, kappa)
heavy 1: not shown
heavy 2: not shown
light: DIVMTQSPLSLPVTPGEPASISCQASESLVHSNRNTYLHWYLQKPGQSPQLLIYKVSNRFSGVPDRFSGSGSGTDFTLKISRVEAEDVGVYYCSQNTHVPPTFGQGTKVEIERTVAAPSVFIFPPSDEQLKSGTASVVCLLNNFYPREAKVQWKVDNALQSGNSQESVTEQDSKDSTYSLSSTLTLSKADYEKHKVYACEVTHQGLSSPVTKSFNRGEC
notes: He Ab; copies: 1 + 1 + 2
B2: GpH7-A5/GpH7-B3 variant G236_20W/GpL16-k0 (antibody, human IgG1, kappa)
heavy 1: not shown
heavy 2: not shown
light: B1 light
notes: He Ab; copies: 1 + 1 + 2
B3: GpH7-A5/GpH7-B3 variant E333_11K/GpL16-k0 (antibody, human IgG1, kappa)
heavy 1: not shown
heavy 2: not shown
light: B1 light
notes: He Ab; copies: 1 + 1 + 2
B4: GpH7-A5/GpH7-B3 variant G236_10E/GpL16-k0 (antibody, human IgG1, kappa)
heavy 1: not shown
heavy 2: not shown
light: B1 light
notes: He Ab; copies: 1 + 1 + 2
B5: GpH7-A5/GpH7-B3 variant G237_03V/GpL16-k0 (antibody, human IgG1, kappa)
heavy 1: not shown
heavy 2: not shown
light: B1 light
notes: He Ab; copies: 1 + 1 + 2
B6: GpH7-A5/GpH7-B3 variant K326_04F/GpL16-k0 (antibody, human IgG1, kappa)
heavy 1: not shown
heavy 2: not shown
light: B1 light
notes: He Ab; copies: 1 + 1 + 2
B7: GpH7-A5/GpH7-B3 variant E269_16H/GpL16-k0 (antibody, human IgG1, kappa)
heavy 1: not shown
heavy 2: not shown
light: B1 light
notes: He Ab; copies: 1 + 1 + 2
B8: GpH7-A5/GpH7-B3 variant E269_14T/GpL16-k0 (antibody, human IgG1, kappa)
heavy 1: not shown
heavy 2: not shown
light: B1 light
notes: He Ab; copies: 1 + 1 + 2
B9: GpH7-A5/GpH7-B3 variant G236_04F/GpL16-k0 (antibody, human IgG1, kappa)
heavy 1: not shown
heavy 2: not shown
light: B1 light
notes: He Ab; copies: 1 + 1 + 2
B10: GpH7-A5/GpH7-B3 variant E269_09D/GpL16-k0 (antibody, human IgG1, kappa)
heavy 1: not shown
heavy 2: not shown
light: B1 light
notes: He Ab; copies: 1 + 1 + 2
B11: GpH7-A5/GpH7-B3 variant H268_04F/GpL16-k0 (antibody, human IgG1, kappa)
heavy 1: not shown
heavy 2: not shown
light: B1 light
notes: He Ab; copies: 1 + 1 + 2
B12: GpH7-A5/GpH7-B3 variant H268_11K/GpL16-k0 (antibody, human IgG1, kappa)
heavy 1: not shown
heavy 2: not shown
light: B1 light
notes: He Ab; copies: 1 + 1 + 2
B13: GpH7-A5/GpH7-B3 variant I332_06M/GpL16-k0 (antibody, human IgG1, kappa)
heavy 1: not shown
heavy 2: not shown
light: B1 light
notes: He Ab; copies: 1 + 1 + 2
B14: GpH7-A5/GpH7-B3 variant G236_03V/GpL16-k0 (antibody, human IgG1, kappa)
heavy 1: not shown
heavy 2: not shown
light: B1 light
notes: He Ab; copies: 1 + 1 + 2
B15: GpH7-A5/GpH7-B3 variant H268_10E/GpL16-k0 (antibody, human IgG1, kappa)
heavy 1: not shown
heavy 2: not shown
light: B1 light
notes: He Ab; copies: 1 + 1 + 2
B16: GpH7-A5/GpH7-B3 variant I332_02A/GpL16-k0 (antibody, human IgG1, kappa)
heavy 1: not shown
heavy 2: not shown
light: B1 light
notes: He Ab; copies: 1 + 1 + 2
B17: GpH7-A5/GpH7-B3 variant E333_01G/GpL16-k0 (antibody, human IgG1, kappa)
heavy 1: not shown
heavy 2: not shown
light: B1 light
notes: He Ab; copies: 1 + 1 + 2
B18: GpH7-A5/GpH7-B3 variant E269_18N/GpL16-k0 (antibody, human IgG1, kappa)
heavy 1: not shown
heavy 2: not shown
light: B1 light
notes: He Ab; copies: 1 + 1 + 2
B19: GpH7-A5/GpH7-B3 variant H268_09D/GpL16-k0 (antibody, human IgG1, kappa)
heavy 1: not shown
heavy 2: not shown
light: B1 light
notes: He Ab; copies: 1 + 1 + 2
B20: GpH7-A5/GpH7-B3 variant G237_14T/GpL16-k0 (antibody, human IgG1, kappa)
heavy 1: not shown
heavy 2: not shown
light: B1 light
notes: He Ab; copies: 1 + 1 + 2
B21: GpH7-A5/GpH7-B3 variant H268_06M/GpL16-k0 (antibody, human IgG1, kappa)
heavy 1: not shown
heavy 2: not shown
light: B1 light
notes: He Ab; copies: 1 + 1 + 2
B22: GpH7-A5/GpH7-B3 variant E269_08L/GpL16-k0 (antibody, human IgG1, kappa)
heavy 1: not shown
heavy 2: not shown
light: B1 light
notes: He Ab; copies: 1 + 1 + 2
B23: GpH7-A5/GpH7-B3 variant I332_10E/GpL16-k0 (antibody, human IgG1, kappa)
heavy 1: not shown
heavy 2: not shown
light: B1 light
notes: He Ab; copies: 1 + 1 + 2
B24: GpH7-A5/GpH7-B3 variant G236_02A/GpL16-k0 (antibody, human IgG1, kappa)
heavy 1: not shown
heavy 2: not shown
light: B1 light
notes: He Ab; copies: 1 + 1 + 2
B25: GpH7-A5/GpH7-B3 variant E269_19Q/GpL16-k0 (antibody, human IgG1, kappa)
heavy 1: not shown
heavy 2: not shown
light: B1 light
notes: He Ab; copies: 1 + 1 + 2
B26: GpH7-A5/GpH7-B3 variant H268_02A/GpL16-k0 (antibody, human IgG1, kappa)
heavy 1: not shown
heavy 2: not shown
light: B1 light
notes: He Ab; copies: 1 + 1 + 2
B27: GpH7-A5/GpH7-B3 variant E333_06M/GpL16-k0 (antibody, human IgG1, kappa)
heavy 1: not shown
heavy 2: not shown
light: B1 light
notes: He Ab; copies: 1 + 1 + 2
B28: GpH7-A5/GpH7-B3 variant H268_12R/GpL16-k0 (antibody, human IgG1, kappa)
heavy 1: not shown
heavy 2: not shown
light: B1 light
notes: He Ab; copies: 1 + 1 + 2
B29: GpH7-A5/GpH7-B3 variant H268_07I/GpL16-k0 (antibody, human IgG1, kappa)
heavy 1: not shown
heavy 2: not shown
light: B1 light
notes: He Ab; copies: 1 + 1 + 2
B30: GpH7-A5/GpH7-B3 variant E333_14T/GpL16-k0 (antibody, human IgG1, kappa)
heavy 1: not shown
heavy 2: not shown
light: B1 light
notes: He Ab; copies: 1 + 1 + 2
B31: GpH7-A5/GpH7-B3 variant H268_18N/GpL16-k0 (antibody, human IgG1, kappa)
heavy 1: not shown
heavy 2: not shown
light: B1 light
notes: He Ab; copies: 1 + 1 + 2
B32: GpH7-A5/GpH7-B3 variant K326_02A/GpL16-k0 (antibody, human IgG1, kappa)
heavy 1: not shown
heavy 2: not shown
light: B1 light
notes: He Ab; copies: 1 + 1 + 2
B33: GpH7-A5/GpH7-B3 variant I332_16H/GpL16-k0 (antibody, human IgG1, kappa)
heavy 1: not shown
heavy 2: not shown
light: B1 light
notes: He Ab; copies: 1 + 1 + 2
B34: GpH7-A5/GpH7-B3 variant H268_08L/GpL16-k0 (antibody, human IgG1, kappa)
heavy 1: not shown
heavy 2: not shown
light: B1 light
notes: He Ab; copies: 1 + 1 + 2
B35: GpH7-A5/GpH7-B3 variant K326_03V/GpL16-k0 (antibody, human IgG1, kappa)
heavy 1: not shown
heavy 2: not shown
light: B1 light
notes: He Ab; copies: 1 + 1 + 2
B36: GpH7-A5/GpH7-B3 variant H268_03V/GpL16-k0 (antibody, human IgG1, kappa)
heavy 1: not shown
heavy 2: not shown
light: B1 light
notes: He Ab; copies: 1 + 1 + 2
B37: GpH7-A5/GpH7-B3 variant H268_13S/GpL16-k0 (antibody, human IgG1, kappa)
heavy 1: not shown
heavy 2: not shown
light: B1 light
notes: He Ab; copies: 1 + 1 + 2
B38: GpH7-A5/GpH7-B3 variant K326_01G/GpL16-k0 (antibody, human IgG1, kappa)
heavy 1: not shown
heavy 2: not shown
light: B1 light
notes: He Ab; copies: 1 + 1 + 2
B39: GpH7-A5/GpH7-B3 variant E333_07I/GpL16-k0 (antibody, human IgG1, kappa)
heavy 1: not shown
heavy 2: not shown
light: B1 light
notes: He Ab; copies: 1 + 1 + 2
B40: GpH7-A5/GpH7-B3 variant H268_01G/GpL16-k0 (antibody, human IgG1, kappa)
heavy 1: not shown
heavy 2: not shown
light: B1 light
notes: He Ab; copies: 1 + 1 + 2
B41: GpH7-A5/GpH7-B3 variant E333_12R/GpL16-k0 (antibody, human IgG1, kappa)
heavy 1: not shown
heavy 2: not shown
light: B1 light
notes: He Ab; copies: 1 + 1 + 2
B42: GpH7-A5/GpH7-B3 variant I332_19Q/GpL16-k0 (antibody, human IgG1, kappa)
heavy 1: not shown
heavy 2: not shown
light: B1 light
notes: He Ab; copies: 1 + 1 + 2
B43: GpH7-A5/GpH7-B3 variant E269_15Y/GpL16-k0 (antibody, human IgG1, kappa)
heavy 1: not shown
heavy 2: not shown
light: B1 light
notes: He Ab; copies: 1 + 1 + 2
B44: GpH7-A5/GpH7-B3 variant E269_13S/GpL16-k0 (antibody, human IgG1, kappa)
heavy 1: not shown
heavy 2: not shown
light: B1 light
notes: He Ab; copies: 1 + 1 + 2
B45: GpH7-A5/GpH7-B3 variant I332_14T/GpL16-k0 (antibody, human IgG1, kappa)
heavy 1: not shown
heavy 2: not shown
light: B1 light
notes: He Ab; copies: 1 + 1 + 2
B46: GpH7-A5/GpH7-B3 variant I332_03V/GpL16-k0 (antibody, human IgG1, kappa)
heavy 1: not shown
heavy 2: not shown
light: B1 light
notes: He Ab; copies: 1 + 1 + 2
B47: GpH7-A5/GpH7-B3 variant G236_15Y/GpL16-k0 (antibody, human IgG1, kappa)
heavy 1: not shown
heavy 2: not shown
light: B1 light
notes: He Ab; copies: 1 + 1 + 2
B48: GpH7-A5/GpH7-B3 variant H268_19Q/GpL16-k0 (antibody, human IgG1, kappa)
heavy 1: not shown
heavy 2: not shown
light: B1 light
notes: He Ab; copies: 1 + 1 + 2
B49: GpH7-A5/GpH7-B3 variant I332_04F/GpL16-k0 (antibody, human IgG1, kappa)
heavy 1: not shown
heavy 2: not shown
light: B1 light
notes: He Ab; copies: 1 + 1 + 2
B50: GpH7-A5/GpH7-B3 variant E333_18N/GpL16-k0 (antibody, human IgG1, kappa)
heavy 1: not shown
heavy 2: not shown
light: B1 light
notes: He Ab; copies: 1 + 1 + 2
B51: GpH7-A5/GpH7-B3 variant H268_20W/GpL16-k0 (antibody, human IgG1, kappa)
heavy 1: not shown
heavy 2: not shown
light: B1 light
notes: He Ab; copies: 1 + 1 + 2
B52: GpH7-A5/GpH7-B3 variant H268_14T/GpL16-k0 (antibody, human IgG1, kappa)
heavy 1: not shown
heavy 2: not shown
light: B1 light
notes: He Ab; copies: 1 + 1 + 2
B53: GpH7-A5/GpH7-B3 variant H268_15Y/GpL16-k0 (antibody, human IgG1, kappa)
heavy 1: not shown
heavy 2: not shown
light: B1 light
notes: He Ab; copies: 1 + 1 + 2
B54: GpH7-A5/GpH7-B3 variant I332_13S/GpL16-k0 (antibody, human IgG1, kappa)
heavy 1: not shown
heavy 2: not shown
light: B1 light
notes: He Ab; copies: 1 + 1 + 2
B55: GpH7-A5/GpH7-B3 variant G236_07I/GpL16-k0 (antibody, human IgG1, kappa)
heavy 1: not shown
heavy 2: not shown
light: B1 light
notes: He Ab; copies: 1 + 1 + 2
B56: GpH7-A5/GpH7-B3 variant G236_09D/GpL16-k0 (antibody, human IgG1, kappa)
heavy 1: not shown
heavy 2: not shown
light: B1 light
notes: He Ab; copies: 1 + 1 + 2

T1 sequence (P08637 other isoform, or with tags, fused parts or gaps): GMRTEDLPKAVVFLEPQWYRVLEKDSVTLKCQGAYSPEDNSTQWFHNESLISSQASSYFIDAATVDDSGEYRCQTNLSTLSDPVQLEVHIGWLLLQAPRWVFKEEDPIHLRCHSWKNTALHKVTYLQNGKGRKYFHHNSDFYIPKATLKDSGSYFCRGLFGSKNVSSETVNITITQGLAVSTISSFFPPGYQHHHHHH

The assay has as its target T1, FcγRIIIa extracellular domain, C-terminal His tag (human, UniProt P08637 17-208).
T1 construct: extracellular domain; also called 3a
Put plainly: SPR, binding activity relative to GpH7-A5/GpH7-B3/GpL16-k0 (=100). On the technique in general: In SPR one partner is held on a chip, and binding of the other changes the refractive index at the surface.
For the molecule B1, the “He/Con 3a” value amounted to 55.3%. For B2 the value was 126%; for B3, 97.7%; for B4, 65.8%. The result for B5 reads 51.3%; that for B6, 114%; that for B7, 50.7%. For B8 the value was 59.7%; for B9, 81%; for B10, 106%.

In the case of B11, the “He/Con 3a” value was found to be 96%. With B12, the “He/Con 3a” value came to 81.6%. The result for B13 reads 92.5%; that for B14, 53.8%; that for B15, 184%. For B16 the value was 103%; for B17, 101%.

Consider B18, for which the “He/Con 3a” value stood at 57.2%. For B19 the value was 195%. The result for B20 reads 50.5%. B21: the “He/Con 3a” value came out at 79.5%.

In the case of B22, the “He/Con 3a” value was determined as 51.5%.

With B23, the “He/Con 3a” value worked out at 213%. For B24 the value was 77%; for B25, 64.3%; for B26, 121%. For B27 the value was 100%; for B28, 76%; for B29, 84.1%. The result for B30 reads 100%; that for B31, 103%.

With B32, the “He/Con 3a” value is 130%.

Regarding B33, the “He/Con 3a” value worked out at 89%. The result for B34 reads 75.9%; that for B35, 135%. With B36, the “He/Con 3a” value was found to be 91.4%. For B37 the value was 121%.

Take B38: the “He/Con 3a” value amounted to 114%. For B39 the value was 100%; for B40, 95.7%.

As for B41, the “He/Con 3a” value was 92.2%. For B42 the value was 101%. The result for B43 reads 51.5%. The result for B44 reads 62.1%; that for B45, 110%; that for B46, 85.2%. For B47, the “He/Con 3a” value amounted to 112%. The result for B48 reads 113%.

As to B49, the “He/Con 3a” value stood at 89.3%. Take B50: the “He/Con 3a” value was found to be 76.2%. The result for B51 reads 82%; that for B52, 90.3%. The result for B53 reads 96.5%; that for B54, 95.6%. As to B55, the “He/Con 3a” value turned out to be 55.6%. For the molecule B56, the “He/Con 3a” value came out at 66.2%.
